Reference: paper PMC2864300, “Regulation of NOXO1 Activity through Reversible Interactions with p22^phox and NOXA1” (PLoS ONE, 2010)
Read-outs that look alike come from different tables or passages of the source.

What was measured:
murine p22^phoxC = test: ITC, binding to mouse p22phox cytoplasmic domain
Procedure: Complex formation between NOXO1, NOXA1 and p22^phox fragments or peptides were measured by isothermal titration calorimetry using a MicroCal VP-ITC calorimeter (MicroCal Inc., Northampton, USA). All proteins were dialysed against ITC buffer (150 mM NaCl, 1 mM DTT and 50 mM HEPES, pH 7.4) and performed at 18°C. All peptides were dissolved in ITC buffer. Typically, 20–40 µM of protein in the cell was titrated by stepwise injections of a total of 200–300 µM of the ligand. Heats of dilution were determined by titrating protein or peptide into ITC buffer and subtracted from the raw ITC data prior to analysis with the software, Origin version 7.0, assuming a single-site binding model. Data were averaged over three to five experiments.

SH3 domain of NOXA1 = settings: GST pull-downs; cited from earlier work
Text: To gain further insight into the molecular basis of complex formation between these two proteins we measured binding of the human and mouse NOXA1-SH3 ...

NOXA1 = settings: COS cells; cited from earlier work
p67^phox = settings: cited from earlier work
Text: The phagocytic oxidase is still the best characterized member of this protein family and consists of a heterodimeric flavocytochrome (containing NOX2 and p22^phox) that makes up the catalytic core of the enzyme plus the cytosolic regulatory subunits p40^phox, p47^phox and p67^phox and the small GTPase Rac, [16]–[18]. Because excessive ROS production is cytotoxic and can induce a number of pathological processes, complicated regulatory mechanisms have evolved that tightly control the activity of the phagocytic oxidase. […] To gain further insight into the molecular basis of complex formation between these two proteins we measured binding of the human and mouse NOXA1-SH3 ... || In the phagocytic oxidase the p47^phox-p67^phox interaction is unusually strong (Kd of 20 nM), [26], due to the presence of two protein interfaces: contacts are made via the conserved PxxPxR motif (at amino acids 363–368), but also via an additional surface composed of residues 369–390 of p47^phox, which fold into a helix-turn-helix (HTH) motif and pack against β-sheets 2, 3 and 4 of SH3B p67^phox. Removal of this additional binding motif reduces the affinity for p67^phox to 20 µM.

B1: Mouse NOXO1 SH3AB–E: tandem SH3 domains plus the C-terminal portion of NOXO1 (mouse) (protein)
chain: QSIPCVQPFHTLDIRDRPFHTKAQEILDILLRHPSGWWLVENKDQQVAWFPAPYLEEVATCQGQESGLALQGSGRQFCTTQAYEGSRSDELSVPSGARVHVLETSDRGWWLCRYNGRTGLLPAMSLQPEGLGSLLGRPGFPDSAGADKVAEDRTIPPVVPTRPCMSAIQSRCCSITRRALGQEQGTRVPR
modifications: left off: GST, end not stated, cleaved
Question: With B1 as the molecule, how does the Kd (murine p22^phoxC; ITC, 18°C, 150 mM NaCl, 1 mM DTT, 50 mM HEPES, pH 7.4, mouse p22^phoxC in syringe, NOXO1 construct in cell, averaged over three to five experiments, NB = no binding) read?
Answer: The Kd was 780 ± 60 nM.

Question: And the ΔH (murine p22^phoxC; ITC, 18°C, pH 7.4, mouse p22^phoxC in syringe, NB = no binding)?
Answer: Its ΔH is -7.1 ± 0.05 kcal/mol.

Question: And the “fold weakening of binding to p22^phox” value (murine p22^phoxC; mouse SH3AB–E in comparison to the tandem SH3 domains)?
Answer: Its value is “around 10 -fold”.

B2: NOXO1: NOX organizing protein 1 (protein, UniProt Q8NFA2 1-376, looked up)
NADPH oxidase organizer 1: MAGPRYPVSVQGAALVQIKRLQTFAFSVRWSDGSDTFVRRSWDEFRQLKKTLKETFPVEAGLLRRSDRVLPKLLGQASLDAPLLGRVGRTSRGLARLQLLETYSRRLLATAERVARSPTITGFFAPQPLDLEPALPPGSRVILPTPEEQPLSRAAGRLSIHSLEAQSLRCLQPFCTQDTRDRPFQAQAQESLDVLLRHPSGWWLVENEDRQTAWFPAPYLEEAAPGQGREGGPSLGSSGPQFCASRAYESSRADELSVPAGARVRVLETSDRGWWLCRYGDRAGLLPAVLLRPEGLGALLSGTGFRGGDDPAGEARGFPEPSQATAPPPTVPTRPSPGAIQSRCCTVTRRALERRPRRQGRPRGCVDSVPHPTTEQ
Question: For B2, which “binding to the SH3 domain of NOXA1” value (SH3 domain of NOXA1) is on record?
Answer: Its value is “failed to bind the SH3 domain of NOXA1”.

Question: What about the “co-immunoprecipitation of NOXO1 and NOXA1” value (NOXA1) of the same molecule?
Answer: The value was “both proteins could be co-immunopricipitated from COS cells”.

B3: p47^phox: cytosolic regulatory subunit of the phagocytic NADPH oxidase (protein, UniProt P14598 1-390, looked up)
Neutrophil cytosol factor 1: MGDTFIRHIALLGFEKRFVPSQHYVYMFLVKWQDLSEKVVYRRFTEIYEFHKTLKEMFPIEAGAINPENRIIPHLPAPKWFDGQRAAENRQGTLTEYCSTLMSLPTKISRCPHLLDFFKVRPDDLKLPTDNQTKKPETYLMPKDGKSTATDITGPIILQTYRAIANYEKTSGSEMALSTGDVVEVVEKSESGWWFCQMKAKRGWIPASFLEPLDSPDETEDPEPNYAGEPYVAIKAYTAVEGDEVSLLEGEAVEVIHKLLDGWWVIRKDDVTGYFPSMYLQKSGQDVSQAQRQIKRGAPPRRSSIRNAHSIHQRSRKRLSQDAYRRNSVRFLQQRRRQARPGPQSPGSPLEEERQTQRSKPQPAVPPRPSADLILNRCSESTKRKLASAV
Question: Which Kd (p67^phox; additional binding motif (residues 369–390 of p47^phox) removed, ref [25], [26], read-out: affinity for p67^phox after removal of additional binding motif) does the source give for B3 here?
Answer: Its Kd is 20000 nM.

Question: And the Kd (p67^phox; interaction with C-terminal SH3 domain of p67^phox, ref [25]–[27], read-out: affinity for p67^phox)?
Answer: The Kd was 20 nM.
